Measured values as given in patent US20240409637A1.

Legend:
[1] = molecular target: human CD8 alpha and beta subunit on JRT3.T3/AP1-Luc/CD28/CD8AB/1G4AB clone 18 reporter T cells (human) (UniProt P01732); test: cell-based or functional assay
[2] = molecular target: human CD8 on cells (primary human CD8 positive T cells; T cells of mice expressing hCD8; human PBMC-derived lymphocytes) (human) (UniProt P01732); test: cell-based or functional assay
Chain of human CD8 on cells (primary human CD8 positive T cells; T cells of mice expressing hCD8; human PBMC-derived lymphocytes) (human) (P01732 22-235, chain 1 of 2): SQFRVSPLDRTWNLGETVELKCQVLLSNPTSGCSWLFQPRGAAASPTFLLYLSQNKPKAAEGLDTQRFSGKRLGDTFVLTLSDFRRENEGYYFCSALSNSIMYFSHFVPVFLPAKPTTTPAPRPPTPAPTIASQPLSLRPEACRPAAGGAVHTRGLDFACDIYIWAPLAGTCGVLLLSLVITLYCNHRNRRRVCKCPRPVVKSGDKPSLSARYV
Chain of human CD8 on cells (primary human CD8 positive T cells; T cells of mice expressing hCD8; human PBMC-derived lymphocytes) (human) (chain, as listed by the source, chain 2 of 2): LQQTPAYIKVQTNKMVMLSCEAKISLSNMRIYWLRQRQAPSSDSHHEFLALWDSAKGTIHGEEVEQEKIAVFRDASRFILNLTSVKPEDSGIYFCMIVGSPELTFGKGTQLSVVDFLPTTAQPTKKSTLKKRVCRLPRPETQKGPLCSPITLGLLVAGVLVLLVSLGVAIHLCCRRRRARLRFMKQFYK

Chain of human CD8 alpha and beta subunit on JRT3.T3/AP1-Luc/CD28/CD8AB/1G4AB clone 18 reporter T cells (human) (P01732 22-235, chain 1 of 2): as the sequence (P01732 22-235, chain 1 of 2) above
Chain of human CD8 alpha and beta subunit on JRT3.T3/AP1-Luc/CD28/CD8AB/1G4AB clone 18 reporter T cells (human) (P10966 22-210, chain 2 of 2, further chain): as the sequence (chain, as listed by the source, chain 2 of 2) above

Clone RPA-T8 (commercially available anti-CD8 antibody)
IC50 [M], reduction of AP1-luciferase activity in CD8 T cell/APC luciferase assay [1]: 1.61e-10 M
Reduction of T cell response at 100 nM [%], CD8 T cell/APC luciferase assay [1]: 97.9%

Isotype 1 (antibody)
Reduction of T cell response at 100 nM [%], CD8 T cell/APC luciferase assay [1]: 7.4%

Isotype 2 (antibody)
Reduction of T cell response at 100 nM [%], CD8 T cell/APC luciferase assay [1]: 6.2%

isotype control antibody (irrelevant isotype matched antibody)
Percent Inhibition of IFNγ Production, one-way MLR Reaction 1, 0.5 nM antibody [2]: 0.5%
Percent Inhibition of IFNγ Production, one-way MLR Reaction 1, 5 nM antibody [2]: 3.9%
Percent Inhibition of IFNγ Production, one-way MLR Reaction 1, 50 nM antibody [2]: -6.6%
Percent Inhibition of IFNγ Production, one-way MLR Reaction 2, 0.5 nM antibody [2]: 2.3%
Percent Inhibition of IFNγ Production, one-way MLR Reaction 2, 5 nM antibody [2]: 3.4%
Percent Inhibition of IFNγ Production, one-way MLR Reaction 2, 50 nM antibody [2]: 25.4%
